Data from publication PMC10148881 (2023).
Where a chain is given by its changes, count along the chain named. Values joined by “and” are separate entries in the source; they are usually repeats but may differ in a detail not shown here. Equal values may be shown once. Ends that are not written are not given here.

B1: Pirh2 NTD + RING (residues 1–189) (domain or fragment)
chain: MAATAREDGASGQERGQRGCEHYDRGCLLKAPCCDKLYTCRLCHDNNEDHQLDRFKVKEVQCINCEKIQHAQQTCEECSTLFGEYYCDICHLFDKDKKQYHCENCGICRIGPKEDFFHCLKCNLCLAMNLQGRHKCIENVSRQNCPICLEDIHTSRVVAHVLPCGHLLHRTCYEEMLKEGYRCPLCMHS

Each binder was assayed against unnamed (assay: ITC).

Binder | Kd
B1 | 8.6 µM and 12 µM

Each binder was assayed against T1, Pirh2 with Ile110 substituted with a negatively charged residue (human, UniProt Q96PM5 1-261) (assay: ITC).
T1 sequence (Q96PM5 whole entry, looked up) 1: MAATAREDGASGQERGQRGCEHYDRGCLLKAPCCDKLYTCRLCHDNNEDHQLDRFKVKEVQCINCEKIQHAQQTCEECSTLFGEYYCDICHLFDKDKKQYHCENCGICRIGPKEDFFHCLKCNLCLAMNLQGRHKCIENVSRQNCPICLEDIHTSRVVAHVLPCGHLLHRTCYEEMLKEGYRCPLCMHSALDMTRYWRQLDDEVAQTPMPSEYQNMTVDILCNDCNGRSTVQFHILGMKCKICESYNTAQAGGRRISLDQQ
T1 sequence (Q96PM5 whole entry, looked up) 2: T1 sequence (Q96PM5 whole entry, looked up) 1

Binder | Kd [µM]
YKTSAAAAAA | 40

Biological target: B1
Assay: ITC

Binder | Kd [µM]
YKTSAAA [three-Ala peptide] | > 100
AAAAAA | 0.9

What follows are binders tested against polyAla/C-degron peptide containing four Ala residues (assay: ITC).

Binder | Kd [µM]
B1 | 7.4

What follows are binders tested against polyAla/C-degron peptide containing five Ala residues (assay: ITC).

Binder | Kd [µM]
B1 | 2.5

Biological target: B1
Assay: ITC
Remark: another data set of the same source

Binder | Kd [µM]
YKTSAAATAA [Ala6/C-degron peptide with the threonine mutation of Ala-3] | 0.7
YKTSAAAPAA [Ala6/C-degron peptide with Ala-3 substituted with proline] | 0.9
YKTSAAGA | 22
YKTSAVAA | 1.9
YKTSAAVA | 13
YKTSAAPA | 26
YKTSAAAA | 0.8
YKTSAAAIAA [Ala6/C-degron peptide with Ala-3 substituted with isoleucine] | 2.7
YKTSASAA | 3
YKTSAASA | 20
YKTSAAAAIA [Ala6/C-degron peptide with Ala-2 substituted with isoleucine] | 13
YKTSATAAAA [Ala6/C-degron peptide with the threonine mutation of Ala-5] | 0.5
YKTSTAAAAA [Ala6/C-degron peptide with the threonine mutation of Ala-6] | 0.5
YKTSAASAAA [Ala6/C-degron peptide with Ala-4 substituted with serine] | 4.5
YKTSPAAA [Ala6/C-degron peptide with Ala-4 substituted with proline] | 57
YKTSAGAA | 2.3
YKTSAAAAAG [Ala6/C-degron peptide with Ala-1 replaced with glycine] | 23

Biological target: B1
Assay: ITC
Remark: another data set of the same source

Binder | Kd [µM]
YKTSAAAKAA [Ala6/C-degron peptide with Ala-3 substituted with lysine] | 2.1
YKTSAAAPAA [Ala6/C-degron peptide with Ala-3 substituted with proline] | 0.5
YKTSAAAIAA [Ala6/C-degron peptide with Ala-3 substituted with isoleucine] | 1.5
YKTSAAAAIA [Ala6/C-degron peptide with Ala-2 substituted with isoleucine] | 10

Biological target: T2, Pirh2 I107D (Homo sapiens)
T2 chain: T1 sequence (Q96PM5 whole entry, looked up) 1 with I107D
Assay: ITC

Binder | Kd [µM]
YKTSAAAAAA (not fully specified) | 9.1
